Data on two molecules can be found in article PMC2267006, “Methylated DNA Recognition during the Reversal of Epigenetic Silencing Is Regulated by Cysteine and Serine Residues in the Epstein-Barr Virus Lytic Switch Protein”.

For series [1], the target named is T1, Zta (Epstein-Barr virus, UniProt P03206 1-245). Kind of series: competition; vs labelled ZIIIB; rank 2 of single-methyl sites; EMSA conditions not stated (cited to earlier papers); IVT proteins in rabbit reticulocyte lysate or wheat germ; competition with 6x-100x unlabelled DNA. The conditions noted are these: protein: ivt; tags: [35S]Met-labelled in EMSA; chain copies: 2. (A gel shift assay detects complexes by their altered migration in electrophoresis.)

Series [2] concerns the target T1, Zta. Kind of series: competition; vs labelled ZIIIB; rank 1 of single-methyl sites; EMSA conditions not stated (cited to earlier papers); IVT proteins in rabbit reticulocyte lysate or wheat germ; competition with 6x-100x unlabelled DNA. The note with it: protein: ivt; tags: [35S]Met-labelled in EMSA; chain copies: 2.

T1 sequence (P03206 whole entry): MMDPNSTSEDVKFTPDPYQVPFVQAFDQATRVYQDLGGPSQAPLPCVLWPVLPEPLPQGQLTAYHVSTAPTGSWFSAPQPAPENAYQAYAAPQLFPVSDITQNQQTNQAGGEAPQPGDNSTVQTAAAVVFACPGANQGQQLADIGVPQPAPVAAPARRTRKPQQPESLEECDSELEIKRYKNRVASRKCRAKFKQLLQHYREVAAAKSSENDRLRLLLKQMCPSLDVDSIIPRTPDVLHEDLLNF

B1: ZRE3 mC-2 (dsDNA)
DNA 1: GATCTATAGCATCGCGAATTTTGA
DNA 2: TCAAAATTCGCGATGCTATAGATC
modifications: single 5mC at C13 of strand 1 (position assigned from text)
Take B1: in the series with Zta [1], the binding result is listed as “binds”.

B2: ZRE3 mC1' (dsDNA)
DNA 1: GATCTATAGCATCGCGAATTTTGA
DNA 2: TCAAAATTCGCGATGCTATAGATC
modifications: single 5mC at the complement of G14 (position assigned from text)
As for B2, in the series with Zta [2], the binding result is given as “binds”.
